system: Escherichia coli TOP10; experiment: shrunken log2 fold change of peptide-encoding DNA abundance (4.5 h post-induction vs induction); higher = less antimicrobial activity (less host growth inhibition); conditions: time post-induction: 4.5 h; library: site-saturation at positions 5, 18, 19, 20
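Further: peptides expressed intracellularly from a pBAD plasmid library in pooled LB shake-flask culture, induced with 0.3% L-arabinose, DNA abundance read by NGS, three biological replicates, DESeq2 with apeglm shrinkage.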

Sequence	shrunken log2 fold change
RRIRCRPPRLPRPRPRPDAYPRP	-0.177
RRIRQRPPRLPRPRPRPDNNPRP	-1.14
RRIRKRPPRLPRPRPRPVFQPRP	0.447
RRIRNRPPRLPRPRPRPGPVPRP	0.127
RRIRIRPPRLPRPRPRPGPFPRP	-0.239
RRIRARPPRLPRPRPRPATNPRP	0.317
RRIRGRPPRLPRPRPRPSTQPRP	0.82
RRIRMRPPRLPRPRPRPYIFPRP	-0.265
RRIRQRPPRLPRPRPRPPCMPRP	-0.0968
RRIRCRPPRLPRPRPRPLIEPRP	-0.0593
RRIRIRPPRLPRPRPRPHDVPRP	0.000407
RRIRRRPPRLPRPRPRPEVQPRP	-0.00368
RRIRCRPPRLPRPRPRPARAPRP	0.471
RRIRMRPPRLPRPRPRPGVDPRP	1.68
RRIRARPPRLPRPRPRPQCFPRP	0.1
RRIRSRPPRLPRPRPRPTWPPRP	0.41
RRIRERPPRLPRPRPRPARHPRP	-0.00285
RRIRQRPPRLPRPRPRPTGNPRP	-0.0862
RRIRCRPPRLPRPRPRPVWQPRP	-0.063
RRIRMRPPRLPRPRPRPPNVPRP	0.301

Sequence	shrunken log2 fold change
RRIRYRPPRLPRPRPRPRQSPRP	-0.0113
RRIRFRPPRLPRPRPRPAREPRP	0.612
RRIRERPPRLPRPRPRPQKQPRP	-0.0621
RRIRTRPPRLPRPRPRPKLYPRP	-0.363
RRIRPRPPRLPRPRPRPTSWPRP	0.769
RRIRGRPPRLPRPRPRPHSGPRP	-0.0558
RRIRLRPPRLPRPRPRPTFYPRP	-0.273
RRIRCRPPRLPRPRPRPGGTPRP	-0.0298
RRIRTRPPRLPRPRPRPCEKPRP	-0.0336
RRIRRRPPRLPRPRPRPSMSPRP	0.0591
RRIRARPPRLPRPRPRPKCMPRP	0.0351
RRIRLRPPRLPRPRPRPCIFPRP	-0.463
RRIRNRPPRLPRPRPRPGQCPRP	0.0172
RRIRHRPPRLPRPRPRPQVNPRP	-0.273
RRIRVRPPRLPRPRPRPRCIPRP	-0.661
RRIRLRPPRLPRPRPRPHAHPRP	-0.506
RRIRRRPPRLPRPRPRPIYAPRP	3.39
RRIRIRPPRLPRPRPRPRSGPRP	0.242
RRIRARPPRLPRPRPRPGVLPRP	0.2
RRIRSRPPRLPRPRPRPAEDPRP	-0.0146

Sequence	shrunken log2 fold change
RRIRVRPPRLPRPRPRPNSCPRP	-0.394
RRIRHRPPRLPRPRPRPGKNPRP	-0.0444
RRIRCRPPRLPRPRPRPINMPRP	-1.09
RRIRYRPPRLPRPRPRPTRWPRP	0.211
RRIRLRPPRLPRPRPRPDPWPRP	0.0779
RRIRWRPPRLPRPRPRPQGTPRP	0.104
RRIRFRPPRLPRPRPRPRAYPRP	-0.23
RRIRQRPPRLPRPRPRPTYVPRP	-0.161
RRIRDRPPRLPRPRPRPNVLPRP	-0.45
RRIRFRPPRLPRPRPRPCAPPRP	-0.121
RRIRQRPPRLPRPRPRPYLHPRP	-0.117
RRIRCRPPRLPRPRPRPFWRPRP	0.0785
RRIRGRPPRLPRPRPRPEDPPRP	1.38
RRIRWRPPRLPRPRPRPDPEPRP	0.159
RRIRMRPPRLPRPRPRPDMAPRP	1.86
RRIRHRPPRLPRPRPRPHQEPRP	-0.0212
RRIRMRPPRLPRPRPRPAISPRP	0.0806
RRIRRRPPRLPRPRPRPKYSPRP	-0.124
RRIRLRPPRLPRPRPRPNIVPRP	-0.00437
RRIRMRPPRLPRPRPRPAEFPRP	1.15
